The values below come from patent US20250092112A1 (HEMOGENYX PHARMACEUTICALS, published 2025).

The test has as its target T1, SARS-CoV-2 Spike protein (wild-type), biotinylated (MyBioSource) (SARS-CoV-2, UniProt P0DTC2 16-1213).
T1 construct: also called WT SARS-CoV-2 Spike; wild-type Spike
The experiment in a line: binding of spike to ACE2-fragment constructs; assay not described.

B1: CAR-based construct 2: CD8 signal peptide+ACE2 (19-605)+CD8 hinge+CD8 TM domain+CD3ζ intracellular domain (receptor)
chain: not shown
notes: domain: CD8 hinge;domain: CD8 TM domain;domain: CD3ζ intracellular domain
As to B1, the binding result is given as “no binding”.

B2: CAR-based construct 1: CD8 signal peptide+ACE2 (19-358)+CD8 hinge+CD8 TM domain+CD3ζ intracellular domain (receptor)
chain: not shown
notes: as for B1
B2: the binding result is “no binding”.
